Laboratory results as given in the nanobody polyreactivity screen of Harvey et al. (2022).

Test: yeast display, Sf9 membrane polyspecificity reagent, FACS + sequencing; frameworks hold sequencing errors
In short: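 Genes from sorted yeast were amplified by colony PCR, read by MiSeq 2 × 250 sequencing and filtered on CDR length. These cells carried a synthetic nanobody library in Saccharomyces cerevisiae BJ5465 and were sorted by FACS into low and high (top ~1%) gates on anti-HA and streptavidin fluorescence. Polyreactivity is labelled according to the gate of origin.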

For “QVQLVESGGGLVQAGGGLRLSCAASGSTFVKNAMGWYRQAPGKERELVAAISYRGGRTYYADSVKGRFTISRDNAKNTVYLQMNSLKPEDTAVYYCAADASHLTGSEYWGQGTQVTVSS”, which “polyreactivity (PSR sort gate)” value is on record?
The value was “high polyreactivity”.

Which “polyreactivity (PSR sort gate)” value does the source give for “QVQLVESGGGLVQAGGILLLSCAASGGTFENYAMGWYIQAPGKERELVAAISSGGSTNYADSVKGRFTISRDNAKNTVYLQMNRLKPEDTAVYYCARYRVWGSNGHKLFHYDYWGQGTQVTVSS” here?
Its value is “low polyreactivity”.

For “QVQLVESGGGLVQAGGILLLSCAASGSIFKPYAMGWYTQAPGKERELVAAISKRGGSTSYADSVKGRFTISRDNAKNSVYLQMNSLKPEDTAVYYCAAVAAFSGLSWYDYWGLGTQVTVSS”, which “polyreactivity (PSR sort gate)” value is on record?
Its value is “high polyreactivity”.

With “QVQLVESGGGLVQAGGILRISCAASGFIFDLYAMGWYRQAPGKERELVAAISGSGGSTYYADSVKGRFTISRDNAKNTVYLQMNSLKPEDTAVYYCAARRFGTNYDYWGQGTQVTVSS” as the sequence, how does the “polyreactivity (PSR sort gate)” value read?
The value was “high polyreactivity”.

With “QVQLVESGGGLVQAGGILRLSCAASGFIFEYYAMGWYRQAPGKERELVAAINGGGGNTYYADSVKGRFTISRDNAKNTVYLQMNSLKPEDTAVYYCNAKRRKYRYDYWGQGTQVTVSS” as the sequence, how does the “polyreactivity (PSR sort gate)” value read?
The value was “high polyreactivity”.

With “QVQLVESGGGLVQAGGILRLSCAASGFIFSSNAMGWYRQAPGKERELVAAITSSGGGTYYADSVKGRFTISRDNAKNTVYLQMNSLKPEDTAVYYCNAAYKYAIPSYGYWGQGTQVTVSS” as the sequence, how does the “polyreactivity (PSR sort gate)” value read?
Its value is “low polyreactivity”.

For “QVQLVESGGGLVQAGGILRLSCAASGFIFWYNAMGWYRQAPGKERELVARINIGGTTSYADSVKGRFTISRDNAKNNVYLQMNSLKREDTAVYYCNAVQGRQYDYWGQGTQVNVSS”, which “polyreactivity (PSR sort gate)” value is on record?
Its value is “low polyreactivity”.

With “QVQLVESGGGLVQAGGILRLSCAASGFTFSSNAMGWYRPAPGKERELVAAISKGGGSTYYADSVKGRFTISRDNAKNSVYLQMNSLKPEDTAVYYCATRRRGGLTFDSWGQGTQVTVSS” as the sequence, how does the “polyreactivity (PSR sort gate)” value read?
Its value is “high polyreactivity”.

With “QVQLVESGGGLVQAGGILRLSCAASGFTFVGNAMGWYRKAAGKERELVATITSGGNTKYADSVKGRFTISRDNAKNTVYLQMNSLTPEDTAVYYCAAAKYNYRRFKYWGQGTQVTVSS” as the sequence, how does the “polyreactivity (PSR sort gate)” value read?
The value was “low polyreactivity”.

For “QVQLVESGGGLVQAGGILRLSCAASGIIFGYYAMGWYRQAPGKERELVAAISSIGGSTYYADSVKGRFTISRDNAKNTVYLQMNSLKPEDTAVYYCAAKYYGRYYRYLGSSFDYWGQGTQVTVSS”, which “polyreactivity (PSR sort gate)” value is on record?
The value was “high polyreactivity”.

For “QVQLVESGGGLVQAGGILRLSCAASGIIFQRNEMGWYRQTPGKERELVANIRDGGITYADSVKGRFTISRDNAKNTVYLEMNSLKPEDTAVYYCARDDTSPGYCDQSSNAAYYYWGQGTQVTVSS”, which “polyreactivity (PSR sort gate)” value is on record?
Its value is “low polyreactivity”.

Which “polyreactivity (PSR sort gate)” value does the source give for “QVQLVESGGGLVQAGGILRLSCAASGIIFSEYAMGWYRQAPGKERELVAAISKSSGSTRYADSVKGRFTISRDNAKNTVYLQMNSLKPEDTAVYYCAREYRWRYGYDYWGQGTQVTVSS” here?
The value was “high polyreactivity”.

Which “polyreactivity (PSR sort gate)” value does the source give for “QVQLVESGGGLVQAGGILRLSCAASGITFGGYAMAWYRQAPGKERELVAAISRGGGSTNYADSVKGRFTISRDNAKNTVYLQINSLKPEDTAVYYCNARRQNSRYDYWGQGTQVTVSS” here?
The value was “low polyreactivity”.

For “QVQLVESGGGLVQAGGILRLSCAASGLIFNYYAMGWYRQAPGKERELVADITRGGSTNYADSVKGRFTISRDNANFTVYVQMNSMKPEDSAVYYCAARVRGWWYRYDYWGHGTQVTVSS”, which “polyreactivity (PSR sort gate)” value is on record?
Its value is “high polyreactivity”.

Which “polyreactivity (PSR sort gate)” value does the source give for “QVQLVESGGGLVQAGGILRLSCAASGLTFAKNAMGWYRQAPGKERELVAAITTGGSTYYADSVKGRFTISRDNAKNTVYLQMNSLKPEDTAVYYCAAQILVRHIPYYFWGQGSQVTVSS” here?
The value was “high polyreactivity”.

For “QVQLVESGGGLVQAGGILRLSCAASGLTFYGYAMGWYRQAPGKERELVAAITRGGGSTYYADSVKGRFTISRDNAKNTVYLQMNSLKPDDTAVYYCAADQTGWGDTYYYWGQGTQVTVSS”, which “polyreactivity (PSR sort gate)” value is on record?
The value was “low polyreactivity”.

Which “polyreactivity (PSR sort gate)” value does the source give for “QVQLVESGGGLVQAGGILRLSCAASGRIFTSNPMGWYRQAPGKEREFVAAISGSGDGTYYADSVKGRFTISRDTAKNTVYLQMNSLKPEDTAVYYCAARRRGTYPYPMGYWGQGTQVTVSS” here?
Its value is “high polyreactivity”.

With “QVQLVESGGGLVQAGGILRLSCAASGRIFVFYFMGWYRQAPGKERELVAAITRTGGSTYYADSVKGRFTISRDNAKNTVYLQMNSLKPEDTAFYYCATRYTRFRHFDYWGQGSQVTVSS” as the sequence, how does the “polyreactivity (PSR sort gate)” value read?
Its value is “low polyreactivity”.

With “QVQLVESGGGLVQAGGILRLSCAASGRTFAYNTMGWYRQAPGKERQLVAAISSDGSTNYADSVKGRFTISRDNAKNTVYLQMNSLKPEDTAVYYCAKGEGTGTSDTQVYEHDYWGQGTQVTVSS” as the sequence, how does the “polyreactivity (PSR sort gate)” value read?
Its value is “low polyreactivity”.

Which “polyreactivity (PSR sort gate)” value does the source give for “QVQLVESGGGLVQAGGILRLSCAASGRTFGRNAMGWYRQAQGKERELVAGISIGGGTTYYADSVKGRFTISRDNAKNTVYLQMNSLKPEDTAVYYCAARSWSYLHRYGYWGQGTLVTVSS” here?
Its value is “high polyreactivity”.

With “QVQLVESGGGLVQAGGILRLSCAASGRTFTPYALGWYRQAAGKERDLVAAISSRGGSTYYADSVKGRFTISRDYAKNTVDLQMNSLKPEDTAVYYCNATQYPAADRYTNNYGGGFDYWGQGTQVTVSS” as the sequence, how does the “polyreactivity (PSR sort gate)” value read?
Its value is “low polyreactivity”.

For “QVQLVESGGGLVQAGGILRLSCAASGSIFRPYAMGWYRQAPGKERELVAAIRWSTRNTYYADSVKGRFTISRDNAKNTVYLQMNSLKPEDTAVYYCAAAYWPVVWFYYWGQGTQVTVSS”, which “polyreactivity (PSR sort gate)” value is on record?
Its value is “low polyreactivity”.

Which “polyreactivity (PSR sort gate)” value does the source give for “QVQLVESGGGLVQAGGILRLSCAASGSIFYAYDKGWYRQAPGKERELVAGISSSDSTYYADSVKGRFTISRDNAKNTVYLQLNSLKPEDTAVYYCAADPVFAAAYIHLYGIYDTWGQGTQVTVSS” here?
Its value is “low polyreactivity”.

With “QVQLVESGGGLVQAGGILRLSCAASGSILDLNAMGWYRQAPGKERELFAAISYSGDSTYYADSVKGRFTISRDNAKNTVYLQMNSLKPEDTAVYEGAAEVYGAVYDYWGQGTQVTVAS” as the sequence, how does the “polyreactivity (PSR sort gate)” value read?
Its value is “low polyreactivity”.

For “QVQLVESGGGLVQAGGILRLSCAASGSTFAGYAMGWYRQAPGKERELVATITYSGASTYYADSVKGRFTISRDNAKITVYLQMNSLKPEDTAVYYCGKKASYWWGYEYWGQGTQVTVSS”, which “polyreactivity (PSR sort gate)” value is on record?
Its value is “low polyreactivity”.

Which “polyreactivity (PSR sort gate)” value does the source give for “QVQLVESGGGLVQAGGILRLSCAASGSTFGFNAMGWYRQAPGKERELVASITSGDSTYYADSVKGRFTISRDNAKNTVYLQMNSLKPEDTAVYYCAKVGGGGQAGDNPILSDYWGQGTQVTVSS” here?
The value was “low polyreactivity”.

For “QVQLVESGGGLVQAGGILRLSCAASGSTFRLNAMVWYRQEPGKERELVASIRWSVGITYYADSVKGRFTISLDNSKNTFYLQMNSLKPEDTAVYYCANGDTNWRYYYWGQGTQVTVSS”, which “polyreactivity (PSR sort gate)” value is on record?
The value was “high polyreactivity”.

With “QVQLVESGGGLVQAGGILRLSCAASGSTFSPYAMGWYRQAPGKERELVANITISGGSTYYADSVKGRFTISRDNAKNTVYLQMNSLKAEDTAVYYCNADSLIRWLFTVVIFDYWGQGTQVTVSS” as the sequence, how does the “polyreactivity (PSR sort gate)” value read?
Its value is “low polyreactivity”.

For “QVQLVESGGGLVQAGGILRLSCAASGSTFSSNAMGWYRQAPGKERELVAAISVNGGSTNYADSVKVRFTISRDNAKNTVYLQMNSLKPEDTAVYYCAAEPAKVAFYRGDYWGQGTEVTVSS”, which “polyreactivity (PSR sort gate)” value is on record?
Its value is “low polyreactivity”.

Which “polyreactivity (PSR sort gate)” value does the source give for “QVQLVESGGGLVQAGGILRLSCAASGSTFTSYAMGWYRQAPGKERELVAAISKSGGSTYYADSVKGRFTISRDNAKNTVYLQMNSLKPEDTALYYCAARYNVRSYSTSRFYYWGQGTLVTVSS” here?
The value was “low polyreactivity”.

With “QVQLVESGGGLVQAGGILRLSCAASGSTFYGYAMGWYRQAPGKERELVAAITRSGGSTYYADSVKGRFTISRDNAKNTVYLQMNSLKPEDTEVYYCNKYGYKGGVGYDYWGQGTQVTVSS” as the sequence, how does the “polyreactivity (PSR sort gate)” value read?
The value was “high polyreactivity”.

With “QVQLVESGGGLVQAGGILRLSCAPSGRIISWNPIGLYRQAPGQERELVADITYSGGSTYYADSVKGRFTISRDNAKNTVYLQMNSLKPEDTAVYDCNADPRWYHFEYGYWGQGTQVTVSS” as the sequence, how does the “polyreactivity (PSR sort gate)” value read?
The value was “high polyreactivity”.

Which “polyreactivity (PSR sort gate)” value does the source give for “QVQLVESGGGLVQAGGILRLSCAPSGSTFRANAMGWYRQAPGKERELVAAITSGGSTNYADSVKGRFTISRDNAKNTVYLQRNSLKPEDTAVYYCADESYQEHSFYVYYGYDYWGQGTQVTVSS” here?
The value was “low polyreactivity”.

With “QVQLVESGGGLVQAGGILRLSCASSGFTFSLYDMGWYRQAPRKDRELVADINGSGGSTYYADSVKGRFTISRDNAKNTVYLQLNILKPEDTAVYYCAAGPPSRWWYIVDYGYWGQGTQVTVSS” as the sequence, how does the “polyreactivity (PSR sort gate)” value read?
Its value is “high polyreactivity”.

With “QVQLVESGGGLVQAGGILRLSCGASGIIFDGYAMGWSRQAPGKERELVAAIDGTGDSTYYADSVKGRFTISRDNAKNTVYLQMNSLKPEDTAVYYCGAEYDYRWWYGYDYWGQGTQVTVSW” as the sequence, how does the “polyreactivity (PSR sort gate)” value read?
Its value is “high polyreactivity”.

With “QVQLVESGGGLVQAGGILRLSCPASGRTFVNYAMGWYRQQPGKESELVAAITSRGGSTYYADSVKGRFTISRDNAKNSVFLQMNSLKPEDTAFYYCAAGEYYYWGQGTQVTVSS” as the sequence, how does the “polyreactivity (PSR sort gate)” value read?
Its value is “high polyreactivity”.

With “QVQLVESGGGLVQAGGILRLSSAASGSIFSNYAMGWYRQAPGKERELVAAINRSGGSTYYADSVKGRFTISRDNAKNTVYLQITSLKPDDTAVYYCNAVRLYYCAGGQFQYHFWGQGTQVTVSS” as the sequence, how does the “polyreactivity (PSR sort gate)” value read?
The value was “high polyreactivity”.

Which “polyreactivity (PSR sort gate)” value does the source give for “QVQLVESGGGLVQAGGILRLSSAASGSTFFNYAMGWYRQAPGKERELVAAISSSGGRTYYADSVKGRFTISRDNAKNTVYLQMNSLKPEDTSVYYCAASGRKHGMNYWGQGTQVTVSS” here?
The value was “high polyreactivity”.

For “QVQLVESGGGLVQAGGILRVSCAASGYTFLGYAMGWYRQPPGKEMELVAVISRTGGRTYYADSVKGRFTISRDNAKNTVYLQMNSLKPEDTAVYYCATEDYRGPEYDYWGQGTQVNVSS”, which “polyreactivity (PSR sort gate)” value is on record?
The value was “high polyreactivity”.

For “QVQLVESGGGLVQAGGILSLSCAASGSTFPYNAMGWYRQAPGIERQLVAAISSGGSTYYADSVKGRFTNSRDNAKNTVYLMMNRLKPEDTAVYYCAASWGKYIRSWGYGYWGQGTLVTVSS”, which “polyreactivity (PSR sort gate)” value is on record?
Its value is “high polyreactivity”.

Which “polyreactivity (PSR sort gate)” value does the source give for “QVQLVESGGGLVQAGGILSLSCAASGSTLNSYAMGWNRPAPGKERELVAAIRWSGSSTYYADSVKGRFTISRDNAKNSVFLQMNSLKPQDTAVYYCAKGYSYGRPWDIYYYCGQGTQVTVSS” here?
The value was “low polyreactivity”.

Which “polyreactivity (PSR sort gate)” value does the source give for “QVQLVESGGGLVQAGGMRRLSCAASGRTFGQYVMGWSRQAPGKERELVAAISRRGGSTYYADSVKGRFTISRDNAKNTVYLQMNSLKPEDTAVYYCAPAGTYTGGEGYLGQGTQVTVSS” here?
The value was “high polyreactivity”.

Which “polyreactivity (PSR sort gate)” value does the source give for “QVQLVESGGGLVQAGGRHRLICAATGITYKSNPMGWYIQAPGTETELVAAIARRASSTYYADSVKGRFTISRDNAKNTVYLHMNSLNPEDTAVYYCNAVLPVYRTNLDYWGQGTQVTVSS” here?
Its value is “high polyreactivity”.
